According to paper PMC9482650, “Quantitative fragmentomics allow affinity mapping of interactomes” (Nature Communications, 2022):

How the values were obtained:
Assay in all cases: holdup assay
Set-up in all cases: key: below the threshold = too weak to quantify, mostly under pKd 3.1 to 4
[1] = target: T1, APBA3_1, O96018
T1 sequence (O96018 389-490, limits assumed, looked up): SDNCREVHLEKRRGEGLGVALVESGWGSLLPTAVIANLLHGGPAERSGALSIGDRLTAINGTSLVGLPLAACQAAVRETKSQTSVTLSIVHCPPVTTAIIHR

[2] = target: T2, DFNB31_3, Q9P202
T2 sequence (Q9P202 811-907, limits assumed, looked up): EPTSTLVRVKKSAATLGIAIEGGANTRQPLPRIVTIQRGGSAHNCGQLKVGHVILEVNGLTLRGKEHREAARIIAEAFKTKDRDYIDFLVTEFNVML

[3] = target: DLG2_2, Q15700
[4] = target: DLG2_3, Q15700
[5] = target: FRMPD4, Q14CM0
[6] = target: GIPC2, Q8TF65
[7] = target: GRID2IP_1, A4D2P6
[8] = target: GRIP2_6, Q9C0E4
[9] = target: IL16_4, Q14005
[10] = target: Inadl_1, Q8NI35
[11] = target: LDB3, O75112
[12] = target: MAGI2_2, Q86UL8
[13] = target: T3, MPDZ_10, O75970
T3 sequence (O75970 1624-1722, limits assumed, looked up): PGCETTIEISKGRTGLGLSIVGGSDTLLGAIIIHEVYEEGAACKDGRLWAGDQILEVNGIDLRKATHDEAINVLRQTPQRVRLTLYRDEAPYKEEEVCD

[14] = target: NHERF2_2, Q15599
[15] = target: T4, PARD3B_1, Q8TEW8
T4 sequence (Q8TEW8 196-299, limits assumed, looked up): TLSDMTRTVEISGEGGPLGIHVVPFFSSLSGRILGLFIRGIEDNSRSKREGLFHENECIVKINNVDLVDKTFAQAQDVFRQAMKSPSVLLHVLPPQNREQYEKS

[16] = target: T5, SNTA1, Q13424
T5 sequence (Q13424 82-180, limits assumed, looked up): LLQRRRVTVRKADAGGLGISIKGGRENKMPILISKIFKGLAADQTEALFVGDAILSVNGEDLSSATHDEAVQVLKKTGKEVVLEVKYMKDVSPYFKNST

[17] = target: T6, SNTG1, Q9NSN8
T6 sequence (Q9NSN8 52-150, limits assumed, looked up): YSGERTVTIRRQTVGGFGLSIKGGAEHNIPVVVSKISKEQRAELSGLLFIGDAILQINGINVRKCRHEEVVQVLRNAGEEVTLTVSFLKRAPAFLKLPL

[18] = target: TJP1_3, Q07157
[19] = target: CASK, O14936
[20] = target: DLG5_1, Q8TDM6
[21] = target: FRMPD2_2, Q68DX3
[22] = target: T7, LIN7C, Q9NUP9
T7 sequence (Q9NUP9 88-185, limits assumed, looked up): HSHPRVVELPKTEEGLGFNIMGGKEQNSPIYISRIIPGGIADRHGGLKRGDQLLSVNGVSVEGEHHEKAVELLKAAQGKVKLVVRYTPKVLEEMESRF

[23] = target: T8, MPDZ_12, O75970
T8 sequence (O75970 1857-1958, limits assumed, looked up): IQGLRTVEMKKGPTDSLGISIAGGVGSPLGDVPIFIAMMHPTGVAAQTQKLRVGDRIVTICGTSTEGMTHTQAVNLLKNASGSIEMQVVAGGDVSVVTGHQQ

[24] = target: T9, NHERF3_1, Q5T2W1
T9 sequence (Q5T2W1 4-100, limits assumed, looked up): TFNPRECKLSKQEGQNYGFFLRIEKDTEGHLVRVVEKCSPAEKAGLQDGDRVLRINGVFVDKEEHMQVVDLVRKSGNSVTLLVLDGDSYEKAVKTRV

[25] = target: T10, RAPGEF6, Q8TEU7
T10 sequence (Q8TEU7 525-625, limits assumed, looked up): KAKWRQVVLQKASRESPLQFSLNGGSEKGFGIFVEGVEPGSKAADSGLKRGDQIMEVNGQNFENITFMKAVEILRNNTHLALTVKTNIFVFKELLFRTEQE

[26] = target: GOPC, Q9HD26; details: plain residues with an end cap or a label only (N-terminal biotin on a linker: ado-ado)
[27] = target: MAGI2_3, Q86UL8
[28] = target: SCRIB_1, Q14160
[29] = plain residues with an end cap or a label only (N-terminal biotin on a linker: ado-ado)
[30] = modified: phospho on T at position -2 from the C-terminal residue

Sequence of TJP1_3, Q07157 (Q07157 416-512): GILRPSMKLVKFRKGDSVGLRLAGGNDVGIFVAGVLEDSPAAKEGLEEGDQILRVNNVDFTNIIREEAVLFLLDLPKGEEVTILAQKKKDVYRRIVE
Sequence of IL16_4, Q14005 (Q14005 1229-1329): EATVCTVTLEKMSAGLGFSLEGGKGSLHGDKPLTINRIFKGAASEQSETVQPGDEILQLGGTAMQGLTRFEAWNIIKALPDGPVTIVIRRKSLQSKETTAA
Sequence of MAGI2_3, Q86UL8 (Q86UL8 600-682): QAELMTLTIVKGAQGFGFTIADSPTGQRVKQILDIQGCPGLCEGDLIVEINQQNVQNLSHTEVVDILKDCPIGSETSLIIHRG
Sequence of FRMPD2_2, Q68DX3 (Q68DX3 944-1038): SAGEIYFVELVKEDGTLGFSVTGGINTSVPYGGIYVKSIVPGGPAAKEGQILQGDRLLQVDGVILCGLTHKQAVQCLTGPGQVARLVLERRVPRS
Sequence of LDB3, O75112 (O75112 1-94): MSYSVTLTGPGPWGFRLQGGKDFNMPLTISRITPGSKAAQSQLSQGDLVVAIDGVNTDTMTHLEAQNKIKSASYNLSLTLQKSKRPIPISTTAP
Sequence of GIPC2, Q8TF65 (Q8TF65 112-203): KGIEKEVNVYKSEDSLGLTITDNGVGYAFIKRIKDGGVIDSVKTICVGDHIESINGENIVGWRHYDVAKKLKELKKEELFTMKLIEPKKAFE
Sequence of GRIP2_6, Q9C0E4 (Q9C0E4 648-740): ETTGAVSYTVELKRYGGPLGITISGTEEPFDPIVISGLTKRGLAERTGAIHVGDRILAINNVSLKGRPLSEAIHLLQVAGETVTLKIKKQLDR
Sequence of CASK, O14936 (O14936 487-570): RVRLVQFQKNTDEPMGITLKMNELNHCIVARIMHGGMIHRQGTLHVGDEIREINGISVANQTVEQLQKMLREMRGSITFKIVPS
Sequence of NHERF2_2, Q15599 (Q15599 142-238): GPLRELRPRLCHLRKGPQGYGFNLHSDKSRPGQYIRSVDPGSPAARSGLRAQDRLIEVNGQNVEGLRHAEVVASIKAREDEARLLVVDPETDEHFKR
Sequence of GRID2IP_1, A4D2P6 (A4D2P6 1-87): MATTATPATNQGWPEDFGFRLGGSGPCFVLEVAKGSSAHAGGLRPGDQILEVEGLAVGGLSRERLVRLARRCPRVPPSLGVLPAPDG
Sequence of MAGI2_2, Q86UL8 (Q86UL8 410-522): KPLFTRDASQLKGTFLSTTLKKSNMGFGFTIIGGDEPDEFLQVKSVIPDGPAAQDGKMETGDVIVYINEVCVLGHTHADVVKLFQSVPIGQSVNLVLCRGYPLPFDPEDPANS
Sequence of SCRIB_1, Q14160 (Q14160 718-814): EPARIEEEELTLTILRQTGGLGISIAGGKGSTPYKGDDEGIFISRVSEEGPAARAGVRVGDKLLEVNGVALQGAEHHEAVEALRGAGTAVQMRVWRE
Sequence of FRMPD4, Q14CM0 (Q14CM0 67-160): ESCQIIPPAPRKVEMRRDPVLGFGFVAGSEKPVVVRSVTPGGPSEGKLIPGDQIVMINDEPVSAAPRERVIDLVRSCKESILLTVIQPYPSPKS
Sequence of DLG5_1, Q8TDM6 (Q8TDM6 617-713): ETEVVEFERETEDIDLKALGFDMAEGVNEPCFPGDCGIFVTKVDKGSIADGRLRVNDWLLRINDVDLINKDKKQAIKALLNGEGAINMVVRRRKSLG
Sequence of Inadl_1, Q8NI35 (Q8NI35 113-229): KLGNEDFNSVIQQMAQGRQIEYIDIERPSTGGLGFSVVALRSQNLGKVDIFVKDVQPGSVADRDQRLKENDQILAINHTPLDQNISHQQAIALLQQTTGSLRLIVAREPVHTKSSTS

KRPEMTSSSV [MUC3A, MUC3B, Q02505;Q9H195]
pKd [1, 29]: below the threshold | pKd [2, 29]: below the threshold | pKd [3, 29]: 3.54 | pKd [4, 29]: 3.88 | pKd [5, 29]: below the threshold | pKd [6, 29]: 3.73 | pKd [7, 29]: below the threshold | pKd [8, 29]: below the threshold | pKd [9, 29]: 1.87 | pKd [10, 29]: below the threshold | pKd [11, 29]: below the threshold | pKd [12, 29]: 3.65 | pKd [13, 29]: 3.73 | pKd [14, 29]: below the threshold | pKd [15, 29]: below the threshold | pKd [16, 29]: 1.76 | pKd [17, 29]: 4.08 | pKd [18, 29]: below the threshold

KSRVAFFEEL [NF2, P35240;P35240-1]
pKd [1, 29]: below the threshold | pKd [19, 29]: below the threshold | pKd [2, 29]: below the threshold | pKd [4, 29]: below the threshold | pKd [20, 29]: below the threshold | pKd [21, 29]: below the threshold | pKd [5, 29]: 4.17 | pKd [7, 29]: below the threshold | pKd [10, 29]: below the threshold | pKd [22, 29]: below the threshold | pKd [12, 29]: below the threshold | pKd [13, 29]: below the threshold | pKd [23, 29]: below the threshold | pKd [24, 29]: 4.18 | pKd [25, 29]: below the threshold | pKd [16, 29]: below the threshold | pKd [17, 29]: below the threshold | pKd [18, 29]: below the threshold

DTKNYKQTSV [CRIPT, Q9P021]
pKd [1, 29]: below the threshold | pKd [19, 29]: below the threshold | pKd [2, 29]: below the threshold | pKd [3, 29]: 4.71 | pKd [4, 29]: 5.29 | pKd [20, 29]: below the threshold | pKd [21, 29]: below the threshold | pKd [5, 29]: below the threshold | pKd [6, 29]: below the threshold | pKd [26]: 3.87 | pKd [7, 29]: below the threshold | pKd [8, 29]: 3.52 | pKd [9, 29]: 3.71 | pKd [10, 29]: below the threshold | pKd [11, 29]: below the threshold | pKd [22, 29]: 3.5 | pKd [12, 29]: 4.55 | pKd [27, 29]: 3.94 | pKd [13, 29]: 3.98 | pKd [23, 29]: below the threshold | pKd [14, 29]: 3.73 | pKd [24, 29]: 4.59 | pKd [15, 29]: 3.48 | pKd [25, 29]: below the threshold | pKd [28, 29]: 4.88 | pKd [16, 29]: 4.74 | pKd [17, 29]: 4.12 | pKd [18, 29]: below the threshold

SRSVVESDEL [MYPN, Q86TC9]
pKd [1, 29]: below the threshold | pKd [19, 29]: below the threshold | pKd [2, 29]: below the threshold | pKd [3, 29]: below the threshold | pKd [4, 29]: below the threshold | pKd [20, 29]: below the threshold | pKd [21, 29]: below the threshold | pKd [5, 29]: 3.72 | pKd [6, 29]: below the threshold | pKd [26]: below the threshold | pKd [7, 29]: below the threshold | pKd [8, 29]: 3.95 | pKd [9, 29]: below the threshold | pKd [10, 29]: below the threshold | pKd [11, 29]: 5.06 | pKd [22, 29]: below the threshold | pKd [12, 29]: below the threshold | pKd [27, 29]: below the threshold | pKd [13, 29]: below the threshold | pKd [23, 29]: below the threshold | pKd [14, 29]: 3.86 | pKd [24, 29]: 5.44 | pKd [15, 29]: below the threshold | pKd [25, 29]: below the threshold | pKd [28, 29]: 3.49 | pKd [16, 29]: 3.6 | pKd [17, 29]: below the threshold | pKd [18, 29]: below the threshold

SSRTRRETQL [HPV16-E6_-2P, P03126]
pKd [1, 30]: below the threshold | pKd [19, 30]: below the threshold | pKd [2, 30]: 3.89 | pKd [3, 30]: below the threshold | pKd [4, 30]: below the threshold | pKd [20, 30]: below the threshold | pKd [21, 30]: below the threshold | pKd [5, 30]: 3.88 | pKd [6, 30]: below the threshold | pKd [7, 30]: below the threshold | pKd [8, 30]: below the threshold | pKd [9, 30]: below the threshold | pKd [10, 30]: below the threshold | pKd [11, 30]: below the threshold | pKd [22, 30]: 3.94 | pKd [12, 30]: below the threshold | pKd [27, 30]: below the threshold | pKd [13, 30]: below the threshold | pKd [23, 30]: below the threshold | pKd [14, 30]: below the threshold | pKd [24, 30]: 3.79 | pKd [15, 30]: below the threshold | pKd [25, 30]: below the threshold | pKd [28, 30]: below the threshold | pKd [16, 30]: below the threshold | pKd [17, 30]: below the threshold | pKd [18, 30]: below the threshold

IDESKKEWLI [CNTNAP2, Q9UHC6]
pKd [1, 29]: below the threshold | pKd [19, 29]: below the threshold | pKd [2, 29]: 3.52 | pKd [3, 29]: below the threshold | pKd [4, 29]: 3.57 | pKd [20, 29]: below the threshold | pKd [21, 29]: below the threshold | pKd [5, 29]: below the threshold | pKd [6, 29]: below the threshold | pKd [26]: below the threshold | pKd [7, 29]: below the threshold | pKd [8, 29]: 3.57 | pKd [9, 29]: 3.79 | pKd [10, 29]: 3.93 | pKd [11, 29]: below the threshold | pKd [22, 29]: below the threshold | pKd [12, 29]: 3.78 | pKd [27, 29]: 3.5 | pKd [13, 29]: below the threshold | pKd [23, 29]: below the threshold | pKd [14, 29]: below the threshold | pKd [24, 29]: below the threshold | pKd [15, 29]: 4.63 | pKd [25, 29]: below the threshold | pKd [28, 29]: below the threshold | pKd [16, 29]: below the threshold | pKd [17, 29]: below the threshold | pKd [18, 29]: below the threshold
